Measurements reported in doi:10.1101/2021.03.19.436221.

Molecular target: ALX301 (human)
Assay: SPR

B1: mouse CD47 (natural protein)
chain: QLLFSNVNSIEFTSCNETVVIPCIVRNVEAQSTEEMFVKWKLNKSYIFIYDGNKNSTTTDQNFTSAKISVSDLINGIASLKMDKRDAMVGNYTCEVTELSREGKTVIELKNRTVSWFSPNEKILIVIFPILAILLFWGKFGILTLKYKSSHTNKRIILLLVAGLVLTVIVVVGAILLIPGEKPVKNASGLGLIVISTGILILLQYNVFMTAFGMTSFTIAILITQVLGYVLALVGLCLCIMACEPVHGPLLISGLGIIALAELLGLVYMKFVASNQRTIQPPRNR
  Kd: 3.41 nM
